Assay [1] deals with T1, human CEA (Carcinoembryonic antigen, CEACAM5) on tumor cells (human, UniProt P06731 35-685, The C-terminal Ala685 carries the GPI anchor. The protein is heavily N-glycosylated.).
T1 sequence: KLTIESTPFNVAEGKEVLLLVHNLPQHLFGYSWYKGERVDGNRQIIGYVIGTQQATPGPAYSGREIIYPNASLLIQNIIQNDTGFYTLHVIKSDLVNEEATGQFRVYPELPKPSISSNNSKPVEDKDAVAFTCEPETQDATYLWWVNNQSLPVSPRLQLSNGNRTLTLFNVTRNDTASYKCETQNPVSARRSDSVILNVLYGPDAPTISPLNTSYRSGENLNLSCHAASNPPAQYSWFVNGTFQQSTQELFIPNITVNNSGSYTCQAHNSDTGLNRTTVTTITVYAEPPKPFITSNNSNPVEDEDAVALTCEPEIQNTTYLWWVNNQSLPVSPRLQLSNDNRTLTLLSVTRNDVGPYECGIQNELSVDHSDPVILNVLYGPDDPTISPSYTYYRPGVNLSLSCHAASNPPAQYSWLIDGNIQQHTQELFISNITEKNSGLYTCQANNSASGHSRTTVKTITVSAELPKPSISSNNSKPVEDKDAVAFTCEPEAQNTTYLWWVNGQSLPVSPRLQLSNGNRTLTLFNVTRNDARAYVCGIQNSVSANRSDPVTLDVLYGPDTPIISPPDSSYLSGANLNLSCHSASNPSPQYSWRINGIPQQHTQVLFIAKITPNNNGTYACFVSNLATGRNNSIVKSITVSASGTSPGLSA
As to the kind of experiment: cell-based or functional assay.

Assay [2] concerns the target T1, human CEA (Carcinoembryonic antigen, …). The assay is described as follows: cell-based or functional assay. The source holds these as a separate data set.
Assay [3] concerns the target T2, human CD3 on Jurkat cells (Homo sapiens, UniProt P07766).
T2 construct: native, on the surface of the Jurkat human T cell line; also called CD3+ cells (Jurkat)
The assay is described as follows: flow cytometry on Jurkat cells (human CD3), FITC-conjugated anti-human IgG F(ab')2 secondary antibody, median fluorescence intensity. How it is done: (§1) An untargeted TCB (SEQ ID NOs: 59, 60, 61 and 62; see example 24) was used as control. Briefly, cells were harvested, counted, checked for viability and resuspended at 2×10⁶ cells/ml in FACS buffer (100 μl PBS 0.1% BSA).

Assay [4] has as its target T2, human CD3 on Jurkat cells. The assay is described as follows: flow cytometry on Jurkat cells (CD3+), PE-conjugated anti-human IgG Fcγ secondary antibody, median fluorescence intensity. On the procedure: (§2) Briefly, cells were harvested, counted, checked for viability and resuspended at 2×10⁶ cells/ml in FACS buffer (100 μl PBS 0.1% BSA).
Assay [5] deals with T3, human MCSP (Melanoma-associated Chondroitin Sulfate Proteoglycan) on tumor cells (human, UniProt Q6UVK1 30-2322).
T3 construct: whole, on cells; Cell surface antigen on human tumor cell lines A375 (high), MV-3 (medium), HCT-116 (low); also called CSPG4
T3 sequence (Q6UVK1 30-2322): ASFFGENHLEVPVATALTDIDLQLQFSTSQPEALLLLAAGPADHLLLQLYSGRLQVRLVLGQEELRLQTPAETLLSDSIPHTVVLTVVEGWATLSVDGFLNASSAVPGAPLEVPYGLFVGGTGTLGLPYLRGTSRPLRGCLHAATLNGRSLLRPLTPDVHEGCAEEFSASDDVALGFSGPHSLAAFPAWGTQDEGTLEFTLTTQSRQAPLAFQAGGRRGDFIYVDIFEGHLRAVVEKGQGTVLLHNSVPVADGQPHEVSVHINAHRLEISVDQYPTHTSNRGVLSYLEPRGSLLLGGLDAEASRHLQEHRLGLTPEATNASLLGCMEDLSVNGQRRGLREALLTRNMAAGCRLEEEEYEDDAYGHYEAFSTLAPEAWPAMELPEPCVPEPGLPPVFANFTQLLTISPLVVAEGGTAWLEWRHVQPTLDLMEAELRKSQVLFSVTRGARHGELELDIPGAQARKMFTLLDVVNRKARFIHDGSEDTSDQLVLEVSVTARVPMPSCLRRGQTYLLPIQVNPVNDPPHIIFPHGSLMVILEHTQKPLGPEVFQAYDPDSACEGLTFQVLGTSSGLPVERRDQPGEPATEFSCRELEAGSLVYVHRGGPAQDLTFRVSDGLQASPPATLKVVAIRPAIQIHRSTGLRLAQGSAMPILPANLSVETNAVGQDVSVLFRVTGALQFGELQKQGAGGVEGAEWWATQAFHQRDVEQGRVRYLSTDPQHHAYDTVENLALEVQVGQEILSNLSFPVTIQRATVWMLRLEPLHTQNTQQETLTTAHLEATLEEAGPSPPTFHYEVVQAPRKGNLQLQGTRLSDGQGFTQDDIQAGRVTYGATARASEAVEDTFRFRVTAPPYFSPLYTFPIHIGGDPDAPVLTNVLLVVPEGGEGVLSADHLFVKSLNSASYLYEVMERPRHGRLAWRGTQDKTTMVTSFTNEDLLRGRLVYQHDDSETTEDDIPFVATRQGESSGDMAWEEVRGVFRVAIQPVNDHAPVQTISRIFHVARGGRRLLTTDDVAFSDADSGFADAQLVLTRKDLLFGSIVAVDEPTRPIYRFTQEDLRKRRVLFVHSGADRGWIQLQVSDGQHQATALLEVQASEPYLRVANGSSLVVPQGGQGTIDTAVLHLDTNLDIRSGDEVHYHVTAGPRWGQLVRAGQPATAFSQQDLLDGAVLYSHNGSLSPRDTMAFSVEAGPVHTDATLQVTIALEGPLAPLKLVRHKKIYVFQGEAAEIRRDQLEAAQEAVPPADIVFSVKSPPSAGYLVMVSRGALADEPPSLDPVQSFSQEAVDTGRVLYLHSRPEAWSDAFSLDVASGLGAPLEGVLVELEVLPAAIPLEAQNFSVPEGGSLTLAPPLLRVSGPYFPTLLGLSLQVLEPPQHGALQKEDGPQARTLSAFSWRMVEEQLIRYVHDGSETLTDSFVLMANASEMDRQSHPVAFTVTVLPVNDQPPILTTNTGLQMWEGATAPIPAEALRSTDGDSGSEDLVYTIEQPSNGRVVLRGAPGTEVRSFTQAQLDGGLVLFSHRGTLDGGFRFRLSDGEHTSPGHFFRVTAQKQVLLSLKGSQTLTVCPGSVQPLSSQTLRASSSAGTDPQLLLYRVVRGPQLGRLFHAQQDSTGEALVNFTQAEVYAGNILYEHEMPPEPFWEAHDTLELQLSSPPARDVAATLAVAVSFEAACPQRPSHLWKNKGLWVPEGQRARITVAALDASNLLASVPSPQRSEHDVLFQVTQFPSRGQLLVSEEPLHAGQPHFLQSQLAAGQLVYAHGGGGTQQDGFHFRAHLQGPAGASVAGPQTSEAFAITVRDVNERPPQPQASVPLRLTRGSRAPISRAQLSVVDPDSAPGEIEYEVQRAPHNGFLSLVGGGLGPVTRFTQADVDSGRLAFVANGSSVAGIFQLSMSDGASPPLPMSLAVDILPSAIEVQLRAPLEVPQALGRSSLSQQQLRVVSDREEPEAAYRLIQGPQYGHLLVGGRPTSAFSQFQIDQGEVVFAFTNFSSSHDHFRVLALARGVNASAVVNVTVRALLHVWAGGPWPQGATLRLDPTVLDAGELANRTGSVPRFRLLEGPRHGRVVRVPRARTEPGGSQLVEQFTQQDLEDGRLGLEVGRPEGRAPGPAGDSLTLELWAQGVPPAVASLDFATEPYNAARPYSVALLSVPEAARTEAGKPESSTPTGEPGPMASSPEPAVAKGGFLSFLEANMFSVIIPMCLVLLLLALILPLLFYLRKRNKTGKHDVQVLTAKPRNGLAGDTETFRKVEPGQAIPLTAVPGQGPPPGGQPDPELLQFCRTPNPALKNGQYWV
As to the kind of experiment: flow cytometry on A375 cells (MCSP+), PE-conjugated anti-human IgG Fcγ secondary antibody, median fluorescence intensity. On the procedure:
as §2

In assay [6] the target is T1, human CEA (Carcinoembryonic antigen, …). As to the kind of experiment: flow cytometry on A549-huCEA cells, FITC-conjugated anti-human IgG F(ab')2 secondary antibody, median fluorescence intensity. On the procedure: as §1

T2 sequence (P07766 23-207): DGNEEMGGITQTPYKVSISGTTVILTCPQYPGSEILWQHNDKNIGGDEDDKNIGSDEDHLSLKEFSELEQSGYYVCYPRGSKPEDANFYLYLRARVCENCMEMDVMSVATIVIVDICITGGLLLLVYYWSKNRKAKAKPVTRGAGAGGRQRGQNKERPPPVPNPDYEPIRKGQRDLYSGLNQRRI

B1: CEA TCB (2+1 Crossfab-IgG P329G LALA inverted) (bispecific antibody)
chain 1: DIQMTQSPSSLSASVGDRVTITCKASAAVGTYVAWYQQKPGKAPKLLIYSASYRKRGVPSRFSGSGSGTDFTLTISSLQPEDFATYYCHQYYTYPLFTFGQGTKLEIKRTVAAPSVFIFPPSDEQLKSGTASVVCLLNNFYPREAKVQWKVDNALQSGNSQESVTEQDSKDSTYSLSSTLTLSKADYEKHKVYACEVTHQGLSSPVTKSFNRGEC
chain 2: QAVVTQEPSLTVSPGGTVTLTCGSSTGAVTTSNYANWVQEKPGQAFRGLIGGTNKRAPGTPARFSGSLLGGKAALTLSGAQPEDEAEYYCALWYSNLWVFGGGTKLTVLSSASTKGPSVFPLAPSSKSTSGGTAALGCLVKDYFPEPVTVSWNSGALTSGVHTFPAVLQSSGLYSLSSVVTVPSSSLGTQTYICNVNHKPSNTKVDKKVEPKSC
chain 3: not shown
chain 4: QVQLVQSGAEVKKPGASVKVSCKASGYTFTEFGMNWVRQAPGQGLEWMGWINTKTGEATYVEEFKGRVTFTTDTSTSTAYMELRSLRSDDTAVYYCARWDFAYYVEAMDYWGQGTTVTVSSASTKGPSVFPLAPSSKSTSGGTAALGCLVKDYFPEPVTVSWNSGALTSGVHTFPAVLQSSGLYSLSSVVTVPSSSLGTQTYICNVNHKPSNTKVDKKVEPKSCDKTHTCPPCPAPEAAGGPSVFLFPPKPKDTLMISRTPEVTCVVVDVSHEDPEVKFNWYVDGVEVHNAKTKPREEQYNSTYRVVSVLTVLHQDWLNGKEYKCKVSNKALGAPIEKTISKAKGQPREPQVCTLPPSRDELTKNQVSLSCAVKGFYPSDIAVEWESNGQPENNYKTTPPVLDSDGSFFLVSKLTVDKSRWQQGNVFSCSVMHEALHNHYTQKSLSLSPGK
notes: Two anti-CEA Fabs CH1A1A 98/99 2F1, one anti-CD3 crossfab (humanized CH2527), Fc knob-into-hole with P329G LALA; the conventional light chain occurs twice (vector ratio 1:2:1:1); also called CEA TCB antibody
On to B1, for which, in assay [1], the “EC50 [pM] 48 h for T-cell mediated killing of ASPC1 cells (LDH release, human PBMCs, E:T 10:1)” value worked out at 846 pM; the “EC50 [pM] 48 h for T-cell mediated killing of BxPC-3 cells (LDH release, human PBMCs, E:T 10:1)” value stood at 3780 pM; the “EC50 [pM] 48 h for T-cell mediated killing of HPAFII cells (LDH release, human PBMCs, E:T 10:1)” value was 667 pM. Further, in assay [2], the “EC50 of killing of A549-hCEA cells at 40 h, cynomolgus PBMCs as effector cells” value was 0.102 nM and the “EC50 of killing of A549-hCEA cells at 40 h, human PBMCs as effector cells” value worked out at 0.306 nM. Further, in assay [3], the binding result is “binds”.

B2: untargeted TCB (bispecific antibody)
polypeptide chain; the text does not say which chain this SEQ ID NO is 1: not shown
polypeptide chain; the text does not say which chain this SEQ ID NO is 2: B1 chain 2
polypeptide chain; the text does not say which chain this SEQ ID NO is 3: not shown
polypeptide chain; the text does not say which chain this SEQ ID NO is 4: not shown
notes: Control bispecific antibody that engages CD3 through humanized CH2527 but no second antigen; also called DP47GS TCB; DP47 GS TCB
Turning to B2, the binding result is “binds” in assay [4], “no binding (tested: about log 5.3 [pM] (about 200 nM))” in assay [5] and “no binding (tested: log 6 [pM] (1000 nM))” in assay [6].

The values are drawn from US20190002564A1 (Hoffmann-La Roche, published 2019).
